Here are results for three substances from patent US20240400614A1, “CLEAVABLE PEPTIDES AND METHODS OF USE THEREOF” (Bright Peak Therapeutics AG, priority 2023, published 2024).

Type in all cases: biochemical
In one assay the target is T1, MMP-2 (Homo sapiens, UniProt P08253).
T1 construct: purchased SIGMA PF023
T1 sequence (P08253 110-660): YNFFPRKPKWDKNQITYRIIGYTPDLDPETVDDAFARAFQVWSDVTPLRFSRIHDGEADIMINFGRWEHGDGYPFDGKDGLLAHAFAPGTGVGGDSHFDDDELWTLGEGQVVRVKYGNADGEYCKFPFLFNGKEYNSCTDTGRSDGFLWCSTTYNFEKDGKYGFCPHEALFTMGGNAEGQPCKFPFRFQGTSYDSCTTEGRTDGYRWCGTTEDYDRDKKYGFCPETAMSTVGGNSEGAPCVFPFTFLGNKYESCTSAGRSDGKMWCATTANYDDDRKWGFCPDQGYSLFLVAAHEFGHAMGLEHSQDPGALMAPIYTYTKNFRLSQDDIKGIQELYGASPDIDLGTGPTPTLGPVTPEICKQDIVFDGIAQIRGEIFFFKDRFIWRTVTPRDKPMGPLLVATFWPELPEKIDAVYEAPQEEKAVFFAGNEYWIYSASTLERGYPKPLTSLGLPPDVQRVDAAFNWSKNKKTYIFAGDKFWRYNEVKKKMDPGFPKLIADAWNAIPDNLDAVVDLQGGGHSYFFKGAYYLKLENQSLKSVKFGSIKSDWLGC
Description: FRET peptide cleavage efficiency with MMP-2. Conditions: for % cleavage MMP-2 t = 15 min: t = 15 min (Table 9).

The next assay addresses T2, matriptase (Homo sapiens, UniProt Q9Y5Y6).
T2 construct: purchased R&D Systems 3946-SEB
T2 sequence (Q9Y5Y6 615-855 limits assumed): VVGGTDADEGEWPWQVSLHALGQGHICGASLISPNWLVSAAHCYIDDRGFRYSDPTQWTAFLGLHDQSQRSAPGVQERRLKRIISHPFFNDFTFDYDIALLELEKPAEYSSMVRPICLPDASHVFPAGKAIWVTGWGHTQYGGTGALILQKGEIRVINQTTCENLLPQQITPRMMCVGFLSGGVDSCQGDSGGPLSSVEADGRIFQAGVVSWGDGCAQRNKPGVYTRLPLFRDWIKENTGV
Description: FRET peptide cleavage efficiency with matriptase. Conditions: standard conditions (Table 8).

Another assay has as its target T3, MMP-7 (Homo sapiens, UniProt P09237).
T3 construct: purchased SIGMA CC1059
T3 sequence (P09237 95-267): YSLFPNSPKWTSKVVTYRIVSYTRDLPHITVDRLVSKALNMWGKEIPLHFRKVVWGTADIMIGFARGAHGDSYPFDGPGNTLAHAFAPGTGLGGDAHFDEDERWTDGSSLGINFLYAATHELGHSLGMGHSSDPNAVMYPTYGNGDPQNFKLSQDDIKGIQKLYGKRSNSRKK
Description: FRET peptide cleavage efficiency with MMP-7 (standard pH 7.5; also pH 6.5).

For another assay, the target named is T4, MMP-9 (Homo sapiens, UniProt P14780).
T4 construct: purchased SIGMA PF024
Description: FRET peptide cleavage efficiency with MMP-9 (standard pH 7.5; also pH 6.5).

The target in the next assay is uPA (Homo sapiens, UniProt P00749). Description: FRET peptide cleavage efficiency with uPA. Conditions: standard conditions (Table 8).
Where [1] appears, read: t = 60 min, standard conditions (Table 8).
Setting [2] is: t = 120 min, standard conditions (Table 8).
The mark [3] stands for this setting: t = 15 min, standard conditions (Table 8).

Square brackets hold non-standard residues; d marks the D form. Ends that are not written are not given here. Tyr(3-NO2) = N[C@@H](Cc1ccc(O)c([N+](=O)[O-])c1)C(=O)O; Nle = CCCC[C@H](N)C(=O)O; 2Abz = Nc1ccccc1C(=O)O

T4 sequence (P14780 94-707): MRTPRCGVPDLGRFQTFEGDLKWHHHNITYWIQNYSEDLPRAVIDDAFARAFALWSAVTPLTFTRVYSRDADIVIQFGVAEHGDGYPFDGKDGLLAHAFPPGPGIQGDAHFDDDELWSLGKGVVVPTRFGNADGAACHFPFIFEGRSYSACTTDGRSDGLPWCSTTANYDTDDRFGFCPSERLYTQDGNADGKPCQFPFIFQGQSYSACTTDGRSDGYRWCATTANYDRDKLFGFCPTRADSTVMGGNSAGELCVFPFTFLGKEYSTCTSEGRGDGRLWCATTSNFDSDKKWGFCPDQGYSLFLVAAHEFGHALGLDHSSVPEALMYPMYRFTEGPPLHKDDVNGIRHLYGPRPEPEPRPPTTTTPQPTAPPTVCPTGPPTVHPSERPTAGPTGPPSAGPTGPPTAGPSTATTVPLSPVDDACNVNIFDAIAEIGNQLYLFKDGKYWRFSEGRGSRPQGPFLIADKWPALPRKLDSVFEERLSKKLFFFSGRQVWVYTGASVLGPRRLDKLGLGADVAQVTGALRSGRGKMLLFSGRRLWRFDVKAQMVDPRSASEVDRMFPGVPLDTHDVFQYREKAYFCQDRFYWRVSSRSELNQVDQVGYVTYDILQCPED

On to “RGRKVANLVG ([2Abz]RGRKVANLVG[Tyr(3-NO2)]-NH2) [LNK031]”, for which, in the assay with MMP-2, the “% cleavage MMP-2 t = 15 min” value stood at 77%. The “% cleavage MMP-2 t = 60 min” value with MMP-2 (t = 60 min (Table 9)) and with MMP-2 (setting [1]) was 100% in each case. Also, the “% cleavage MMP-2 t = 120 min” value with MMP-2 (t = 120 min (Table 9)) and with MMP-2 (setting [2]) was 100% throughout. For the same substance, the “% cleavage Matriptase t = 15 min” value with matriptase was determined as 99%. The “% cleavage Matriptase t = 60 min” value with matriptase was 100%. Further, the “% cleavage Matriptase t = 120 min” value in the assay with matriptase came to 100%. Moreover, the “% cleavage MMP-7 t = 15 min” value with MMP-7 (t = 15 min (Table 9)) and in the assay with MMP-7 (setting [3]) was 22% each time. For the same substance, the “% cleavage MMP-7 t = 60 min” value with MMP-7 (t = 60 min (Table 9)) and in the assay with MMP-7 (setting [1]) was 74% throughout. For the same substance, the “% cleavage MMP-7 t = 120 min” value with MMP-7 (t = 120 min (Table 9)) and with MMP-7 (setting [2]) was 93% throughout. The “% cleavage MMP-9 t = 15 min” value with MMP-9 (t = 15 min (Table 9)) and with MMP-9 (setting [3]) was 75% in each case. Further, the “% cleavage MMP-9 t = 60 min” value with MMP-9 (t = 60 min (Table 9)) and in the assay with MMP-9 (setting [1]) was 100% each time. The “% cleavage MMP-9 t = 120 min” value with MMP-9 (t = 120 min (Table 9)) and with MMP-9 (setting [2]) was 100% throughout. Also, the “% vcleavage uPA t = 15 min” value in the assay with uPA is listed as 1%. Further, in the assay with uPA, the “% cleavage uPA t = 60 min” value is given as 1%. In addition, in the assay with uPA, the “% cleavage uPA t = 120 min” value was 2%.

As for “RGRKPY-Nle-LQG ([2Abz]RGRKPY[Nle]LQG[Tyr(3-NO2)]-NH2) [LNK036]”, the “% cleavage MMP-2 t = 15 min” value with MMP-2 turned out to be 27%. For the same substance, the “% cleavage MMP-2 t = 60 min” value in the assay with MMP-2 (t = 60 min (Table 9)) and with MMP-2 (setting [1]) was 70% each time. Besides, the “% cleavage MMP-2 t = 120 min” value with MMP-2 (t = 120 min (Table 9)) and with MMP-2 (setting [2]) was 88% in each case. In the assay with matriptase, the “% cleavage Matriptase t = 15 min” value is recorded as 76%. Besides, the “% cleavage Matriptase t = 60 min” value with matriptase amounted to 100%. In addition, in the assay with matriptase, the “% cleavage Matriptase t = 120 min” value stood at 100%. Further, the “% cleavage MMP-7 t = 15 min” value with MMP-7 (t = 15 min (Table 9)) and with MMP-7 (setting [3]) was 34% in each case. Also, the “% cleavage MMP-7 t = 60 min” value with MMP-7 (t = 60 min (Table 9)) and with MMP-7 (setting [1]) was 88% in each case. In addition, the “% cleavage MMP-7 t = 120 min” value in the assay with MMP-7 (t = 120 min (Table 9)) and with MMP-7 (setting [2]) was 100% each time. The “% cleavage MMP-9 t = 15 min” value with MMP-9 (t = 15 min (Table 9)) and with MMP-9 (setting [3]) was 28% throughout. For the same substance, the “% cleavage MMP-9 t = 60 min” value with MMP-9 (t = 60 min (Table 9)) and with MMP-9 (setting [1]) was 87% in each case. The “% cleavage MMP-9 t = 120 min” value with MMP-9 (t = 120 min (Table 9)) and with MMP-9 (setting [2]) was 100% each time. Moreover, the “% vcleavage uPA t = 15 min” value with uPA turned out to be 0%. Besides, in the assay with uPA, the “% cleavage uPA t = 60 min” value was 0%. In the assay with uPA, the “% cleavage uPA t = 120 min” value is listed as 0%.

For the substance “RGRKSPQPLVD ([2Abz]RGRKSPQPLVD[Tyr(3-NO2)]-NH2) [LNK040]”, the “% cleavage MMP-2 t = 15 min” value in the assay with MMP-2 is 8%. Moreover, the “% cleavage MMP-2 t = 60 min” value in the assay with MMP-2 (t = 60 min (Table 9)) and with MMP-2 (setting [1]) was 28% in each case. Further, the “% cleavage MMP-2 t = 120 min” value with MMP-2 (t = 120 min (Table 9)) and with MMP-2 (setting [2]) was 47% in each case. Besides, the “% cleavage Matriptase t = 15 min” value with matriptase is 100%. Also, the “% cleavage Matriptase t = 60 min” value with matriptase is 100%. Also, the “% cleavage Matriptase t = 120 min” value with matriptase was 100%. The “% cleavage MMP-7 t = 15 min” value in the assay with MMP-7 (t = 15 min (Table 9)) and with MMP-7 (setting [3]) was 29% throughout. In addition, the “% cleavage MMP-7 t = 60 min” value in the assay with MMP-7 (t = 60 min (Table 9)) and with MMP-7 (setting [1]) was 74% throughout. Moreover, the “% cleavage MMP-7 t = 120 min” value with MMP-7 (t = 120 min (Table 9)) and with MMP-7 (setting [2]) was 93% throughout. The “% cleavage MMP-9 t = 15 min” value with MMP-9 (t = 15 min (Table 9)) and with MMP-9 (setting [3]) was 25% in each case. In addition, the “% cleavage MMP-9 t = 60 min” value with MMP-9 (t = 60 min (Table 9)) and in the assay with MMP-9 (setting [1]) was 69% each time. The “% cleavage MMP-9 t = 120 min” value in the assay with MMP-9 (t = 120 min (Table 9)) and in the assay with MMP-9 (setting [2]) was 89% throughout. Moreover, in the assay with uPA, the “% vcleavage uPA t = 15 min” value was determined as 0%. In addition, in the assay with uPA, the “% cleavage uPA t = 60 min” value came out at 0%. The “% cleavage uPA t = 120 min” value in the assay with uPA turned out to be 0%.
